The results in this text go back to publication PMC5021334.

For assay [1], the target named is GST-DENV2 NS5 residues 865-900 (Dengue virus serotype 2). The assay is described as follows: pull-down.
In assay [2] the target is GST-DENV3 NS5 residues 865-900 (Dengue virus serotype 3). The experiment in a line: pull-down.
For assay [3], the target named is GST-DENV1 NS5 residues 865-899 (Dengue virus serotype 1). The assay is described as follows: ELISA; solid-phase microtitre plate assay: GST-NLS from cell lysate captured on a glutathione coated plate and washed (PBS, 0.05% Tween-20); Impα in 2-fold serial dilutions in PBS from 12.5 μM, 1 h at RT; bound Impα detected with anti-6x His tag HRP antibody and TMB at 450 nm; one-site specific binding ….

Assay [4] concerns the target GST-DENV2 NS5 residues 865-900 (Dengue virus serotype 2). The description is as above.
For assay [5], the target named is GST-DENV3 NS5 residues 865-900 (Dengue virus serotype 3). The description is as above.
The target of assay [6] is GST-DENV4 NS5 residues 865-901 (Dengue virus serotype 4). Described as above.

Consider “mouse importin-α lacking the auto-inhibitory importin-β binding domain (Impα) (domain or fragment)”, for which the Kd in assay [1] stood at 270 nM; in assay [2], 370 nM; in assay [3] it was 54000 nM; in assay [4] it was 4530 nM; in assay [5], 660 nM; in assay [6], 18500 nM.
